Target: yAsf1 mutant V94R labeled with Alexa Fluor 532 (S. cerevisiae)
Assay: other fluorescence titration

X. laevis H3^C110A / H4^T71C labeled with the Qsy9 fluorescence quencher (complex)
Kd: 290 nM

Source: paper PMC3141235
